Source: publication PMC11417369, “DNA sequence and chromatin differentiate sequence-specific transcription factor binding in the human malaria parasite Plasmodium falciparum”

T1: AP2-HC D1 (Plasmodium falciparum, UniProt Q8IKR9 1316-1374)
T1 sequence: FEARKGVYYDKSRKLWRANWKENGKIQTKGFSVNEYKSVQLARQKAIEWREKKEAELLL

B1: CACACA_negctrl_site1524 (dsDNA)
DNA 1: TTTTTTTTTTTTTTTTTTTTACCCCTTTTTCAAAAA
DNA 2: TTTTTGAAAAAGGGGTAAAAAAAAAAAAAAAAAAAA
B2: CACACA_site8037 (dsDNA)
DNA 1: TAAAAGAAATAAGGTGCACACATATACATATATATA
DNA 2: TATATATATGTATATGTGTGCACCTTATTTCTTTTA
B3: CACACA_site8492 (dsDNA)
DNA 1: AAAAAAAAAAAAAAAACACACACAAATTTAATATAT
DNA 2: ATATATTAAATTTGTGTGTGTTTTTTTTTTTTTTTT
B4: CACACA_site1882 (dsDNA)
DNA 1: ATATAGATCTACACTGCACACATTTTTAACACTGCT
DNA 2: AGCAGTGTTAAAAATGTGTGCAGTGTAGATCTATAT
B5: CACACA_site1808 (dsDNA)
DNA 1: ATAAATATTAAAAGTACACACAGATACACTAATTAT
DNA 2: ATAATTAGTGTATCTGTGTGTACTTTTAATATTTAT
B6: CACACA_site3027 (dsDNA)
DNA 1: AAGTTTATTTGTTGCACACATATAAGTAGAGAAAAT
DNA 2: ATTTTCTCTACTTATATGTGTGCAACAAATAAACTT
B7: CACACA_site6369 (dsDNA)
DNA 1: ATAAATAAGATATATACACACATATCTATACATATT
DNA 2: AATATGTATAGATATGTGTGTATATATCTTATTTAT
B8: CACACA_site5129 (dsDNA)
DNA 1: TATAAATACATACGTACACACAAATATTAAAATATA
DNA 2: TATATTTTAATATTTGTGTGTACGTATGTATTTATA
B9: CACACA_negctrl_site1727 (dsDNA)
DNA 1: TAACCACAAAAATAAAATCAAAAAAAAAAAAAAAAA
DNA 2: TTTTTTTTTTTTTTTTTGATTTTATTTTTGTGGTTA
B10: CACACA_site3596 (dsDNA)
DNA 1: AAATTCAAACAAATTACACACATTTTTTTTTAATTT
DNA 2: AAATTAAAAAAAAATGTGTGTAATTTGTTTGAATTT
B11: CACACA_site7206 (dsDNA)
DNA 1: TACCTAATATGTTATACACACATTATAAGTACATAT
DNA 2: ATATGTACTTATAATGTGTGTATAACATATTAGGTA
B12: CACACA_site2909 (dsDNA)
DNA 1: TTCTTTTTCCAATTTGCACACCACAAAATTATATAT
DNA 2: ATATATAATTTTGTGGTGTGCAAATTGGAAAAAGAA
B13: CACACA_site8055 (dsDNA)
DNA 1: ATCTAAATAAAGTTAACACACACATAATATATATAT
DNA 2: ATATATATATTATGTGTGTGTTAACTTTATTTAGAT
B14: CACACA_negctrl_site807 (dsDNA)
DNA 1: TTTTTTTTTTTTTTTTTTAAACACCTCAAAAAAAAA
DNA 2: TTTTTTTTTGAGGTGTTTAAAAAAAAAAAAAAAAAA
B15: CACACA_site884 (dsDNA)
DNA 1: ATGTGGAAATAGAGCACACATATATATAATATATAT
DNA 2: ATATATATTATATATATGTGTGCTCTATTTCCACAT
B16: CACACA_site6743 (dsDNA)
DNA 1: AAGAAGCATAAATGTACACACATATTTATATATCAA
DNA 2: TTGATATATAAATATGTGTGTACATTTATGCTTCTT
B17: CACACA_site9021 (dsDNA)
DNA 1: ATTTCGTAATTTATATCACACACATATATATATAAT
DNA 2: ATTATATATATATGTGTGTGATATAAATTACGAAAT
B18: CACACA_site1955 (dsDNA)
DNA 1: AATGAATGTAAGAAAATACACACTAGTATAGTAACA
DNA 2: TGTTACTATACTAGTGTGTATTTTCTTACATTCATT
B19: CACACA_site7113 (dsDNA)
DNA 1: TACGTTCTGATATATACACACCTGGTATTAATTATG
DNA 2: CATAATTAATACCAGGTGTGTATATATCAGAACGTA
B20: CACACA_negctrl_site1670 (dsDNA)
DNA 1: TTTATTTAAAAAATAAAAAAAAAAAAAAAAAAAAAA
DNA 2: TTTTTTTTTTTTTTTTTTTTTTATTTTTTAAATAAA
B21: CACACA_site8007 (dsDNA)
DNA 1: TTTATTTTATCATTTGCACACGCACCCCCACATAAA
DNA 2: TTTATGTGGGGGTGCGTGTGCAAATGATAAAATAAA
B22: CACACA_site9316 (dsDNA)
DNA 1: CTTTTTAATAAATATACACACACAAAAAAAAAAAAA
DNA 2: TTTTTTTTTTTTTGTGTGTGTATATTTATTAAAAAG
B23: CACACA_site3408 (dsDNA)
DNA 1: GATCTATACATGGGGACACACATCACTCTATATTTT
DNA 2: AAAATATAGAGTGATGTGTGTCCCCATGTATAGATC
B24: CACACA_site315 (dsDNA)
DNA 1: ACCAATAATATACATACACACATAAAGGTTTATATA
DNA 2: TATATAAACCTTTATGTGTGTATGTATATTATTGGT
B25: CACACA_site6815 (dsDNA)
DNA 1: TAAGAGTAGTTATATACACACATGTATATTATAGTT
DNA 2: AACTATAATATACATGTGTGTATATAACTACTCTTA
B26: CACACA_site1591 (dsDNA)
DNA 1: TTAGCAACTATTACTACACACATTTGTATATAATTT
DNA 2: AAATTATATACAAATGTGTGTAGTAATAGTTGCTAA
B27: CACACA_site2516 (dsDNA)
DNA 1: AAAAAAAATGATAATATACACACTTATGGGAGAGCG
DNA 2: CGCTCTCCCATAAGTGTGTATATTATCATTTTTTTT
B28: CACACA_site2016 (dsDNA)
DNA 1: CCAACATATATTATCACACACATATATATATATATA
DNA 2: TATATATATATATATGTGTGTGATAATATATGTTGG
B29: CACACA_site7038 (dsDNA)
DNA 1: ACAACATATGTTATCACACACATATAAATATAAATA
DNA 2: TATTTATATTTATATGTGTGTGATAACATATGTTGT
B30: CACACA_negctrl_site1343 (dsDNA)
DNA 1: TTTTAAAAAAAAAAAAAAAAAAAAAAAAAAAAAAAA
DNA 2: TTTTTTTTTTTTTTTTTTTTTTTTTTTTTTTTAAAA
B31: CACACA_site2473 (dsDNA)
DNA 1: GTTATTGTAAAAAGATTACACACGTTCTATATACTT
DNA 2: AAGTATATAGAACGTGTGTAATCTTTTTACAATAAC
B32: CACACA_site382 (dsDNA)
DNA 1: GATATATATATTCACACACACATGGAAATATATATA
DNA 2: TATATATATTTCCATGTGTGTGTGAATATATATATC

Target: T1, AP2-HC D1
Assay: gcPBM; about 25 ug protein; PBS, 1% milk, 0.2 mg/ml BSA, salmon testes DNA, 0.03% Triton X-100
Conditions: tags: N-terminal GST (pGEX-4T-1), kept; label: surface-attached array probe

| Binder | binding signal |
| --- | --- |
| B1 | 8.65 ln median PBM intensity, better of two orientations |
| B2 | 9.97 ln median PBM intensity, better of two orientations |
| B3 | 10.1 ln median PBM intensity, better of two orientations |
| B4 | 10 ln median PBM intensity, better of two orientations |
| B5 | 10 ln median PBM intensity, better of two orientations |
| B6 | 9.88 ln median PBM intensity, better of two orientations |
| B7 | 9.9 ln median PBM intensity, better of two orientations |
| B8 | 9.91 ln median PBM intensity, better of two orientations |
| B9 | 8.75 ln median PBM intensity, better of two orientations |
| B10 | 9.94 ln median PBM intensity, better of two orientations |
| B11 | 9.98 ln median PBM intensity, better of two orientations |
| B12 | 10 ln median PBM intensity, better of two orientations |
| B13 | 10.1 ln median PBM intensity, better of two orientations |
| B14 | 8.83 ln median PBM intensity, better of two orientations |
| B15 | 9.92 ln median PBM intensity, better of two orientations |
| B16 | 10.1 ln median PBM intensity, better of two orientations |

| Binder | binding signal |
| --- | --- |
| B17 | 9.99 ln median PBM intensity, better of two orientations |
| B18 | 9.93 ln median PBM intensity, better of two orientations |
| B19 | 10 ln median PBM intensity, better of two orientations |
| B20 | 8.32 ln median PBM intensity, better of two orientations |
| B21 | 10 ln median PBM intensity, better of two orientations |
| B22 | 10.1 ln median PBM intensity, better of two orientations |
| B23 | 10.1 ln median PBM intensity, better of two orientations |
| B24 | 9.89 ln median PBM intensity, better of two orientations |
| B25 | 9.9 ln median PBM intensity, better of two orientations |
| B26 | 9.95 ln median PBM intensity, better of two orientations |
| B27 | 9.94 ln median PBM intensity, better of two orientations |
| B28 | 9.91 ln median PBM intensity, better of two orientations |
| B29 | 9.96 ln median PBM intensity, better of two orientations |
| B30 | 8.78 ln median PBM intensity, better of two orientations |
| B31 | 9.97 ln median PBM intensity, better of two orientations |
| B32 | 10.1 ln median PBM intensity, better of two orientations |
